Square brackets hold non-standard residues; d marks the D form. Primed or numbered codes have the meaning given here. Ends that are not written are not given here. FITC′ = fluorescein isothiocyanate label; Cha = N[C@@H](CC1CCCCC1)C(=O)O
Assays:
[1] = biological target: E. coli sliding clamp (DnaN protein, β subunit of DNA polymerase III) (E. coli) (UniProt P0A988); assay: cell-based or functional assay
[2] = biological target: E. coli 70S ribosome particle (E. coli); assay: ITC, 30 °C, peptide titrated into E. coli 70S ribosome
[3] = biological target: E. coli 70S ribosome particle (E. coli); assay: ITC, 30 °C, E. coli ribosome

Chain of E. coli sliding clamp (DnaN protein, β subunit of DNA polymerase III) (E. coli) (P0A988 whole entry): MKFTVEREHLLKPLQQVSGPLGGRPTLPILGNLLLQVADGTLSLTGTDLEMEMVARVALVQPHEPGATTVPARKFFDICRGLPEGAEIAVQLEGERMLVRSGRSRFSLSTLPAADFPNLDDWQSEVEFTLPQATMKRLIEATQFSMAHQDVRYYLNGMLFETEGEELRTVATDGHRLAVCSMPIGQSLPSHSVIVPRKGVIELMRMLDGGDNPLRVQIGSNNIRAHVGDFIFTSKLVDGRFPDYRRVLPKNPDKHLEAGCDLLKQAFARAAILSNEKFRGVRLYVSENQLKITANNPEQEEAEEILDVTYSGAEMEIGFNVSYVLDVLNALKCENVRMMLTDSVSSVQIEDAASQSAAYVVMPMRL

B1: CM1-92 (FITC-Onc112-P7), FITC-K-…rIYNrGPRQChaDLF-OH (peptide)
peptide: {FITC′}-KVDKPPYLPRPRPPR[dR]IYN[dR]GPRQ[Cha]DLF-OH
modifications: not fully specified
Binder B1 has an MIC (µM), E. coli ATCC 25922, Mueller-Hinton broth [1] of 16 µM.

B2: P188 (Py-P7Scr), …haGQLD-OH (peptide)
peptide: VDKGSYLPRPTPPRPIYNRNGPR[Cha]FQLD-OH
In the case of B2, the -TΔS [2] is reported as 5.5 kcal/mol, the Kd [2] is reported as 0.0758 µM and the ΔG [2] is reported as -9.89 kcal/mol. For the same binder, the ΔH [2] was -15.4 kcal/mol.

B3: CA3-124 (FITC-Onc112), FITC-…rIYNr-NH2 (peptide)
peptide: {FITC′}-VDKPPYLPRPRPPR[dR]IYN[dR]-NH2
modifications: not fully specified
Work on B3 yielded a Kd [3] of 7.7 µM, a ΔG [3] of -7.1 kcal/mol and a ΔH [3] of -22.6 kcal/mol.

Source: patent publication US20220002344A1
